Earlier results on 18 sequences are cited in article PMC12990809.

Common to all, as to experiment: pulldown
Common to all, as to conditions: 20 nM protein, 1.5 uM RNA pool; 20 mM HEPES pH 7.8, 70 mM KCl, 10 mM NaCl, 10% glycerol, 2 mM DTT, 0.1 ug/uL BSA; 30 min, 4 C (protocol of this paper; not …); cited from earlier work

The target in data set [1] is T1, Tb927.3.3930 N185S (Trypanosoma brucei) (UniProt Q57WC9).
T1 sequence: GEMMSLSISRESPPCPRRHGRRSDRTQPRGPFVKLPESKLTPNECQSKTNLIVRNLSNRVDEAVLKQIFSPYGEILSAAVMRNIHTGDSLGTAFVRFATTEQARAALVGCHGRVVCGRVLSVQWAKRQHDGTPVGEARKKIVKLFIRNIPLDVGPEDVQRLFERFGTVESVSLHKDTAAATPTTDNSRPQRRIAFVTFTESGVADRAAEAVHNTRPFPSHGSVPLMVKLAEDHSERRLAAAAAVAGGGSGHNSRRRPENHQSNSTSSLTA

In data set [2] the target is T2, PF10_0068 (Plasmodium falciparum) (UniProt Q8IJX3).
T2 sequence: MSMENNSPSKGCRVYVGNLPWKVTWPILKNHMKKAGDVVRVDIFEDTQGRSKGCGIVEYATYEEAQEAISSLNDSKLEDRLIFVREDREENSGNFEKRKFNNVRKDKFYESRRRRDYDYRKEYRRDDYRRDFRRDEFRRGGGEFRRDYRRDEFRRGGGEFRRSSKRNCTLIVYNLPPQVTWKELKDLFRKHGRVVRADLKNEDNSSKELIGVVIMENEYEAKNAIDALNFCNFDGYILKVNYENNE

Data set [3] has as its target T3, TVAG_302220 (Trichomonas vaginalis) (UniProt A2EGP7).
T3 sequence: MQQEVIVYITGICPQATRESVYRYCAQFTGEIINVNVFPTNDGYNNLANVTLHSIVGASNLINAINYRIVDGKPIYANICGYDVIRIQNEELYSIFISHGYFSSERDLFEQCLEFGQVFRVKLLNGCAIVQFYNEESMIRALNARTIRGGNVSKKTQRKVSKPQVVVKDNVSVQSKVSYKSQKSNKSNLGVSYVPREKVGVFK

The target of data set [4] is T4, PFI1435w (Plasmodium falciparum) (UniProt C0H570).
T4 sequence: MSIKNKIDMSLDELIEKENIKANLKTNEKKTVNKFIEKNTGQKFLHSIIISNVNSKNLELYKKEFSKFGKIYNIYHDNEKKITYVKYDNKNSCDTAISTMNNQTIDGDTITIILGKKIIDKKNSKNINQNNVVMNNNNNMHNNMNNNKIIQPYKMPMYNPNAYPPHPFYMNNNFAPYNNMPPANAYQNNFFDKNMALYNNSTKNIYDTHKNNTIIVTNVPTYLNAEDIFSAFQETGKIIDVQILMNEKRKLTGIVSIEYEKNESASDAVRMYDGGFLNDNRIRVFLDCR

Data set [5] deals with T5, Tb09.211.0560 (Trypanosoma brucei) (UniProt Q38EA2).
T5 sequence: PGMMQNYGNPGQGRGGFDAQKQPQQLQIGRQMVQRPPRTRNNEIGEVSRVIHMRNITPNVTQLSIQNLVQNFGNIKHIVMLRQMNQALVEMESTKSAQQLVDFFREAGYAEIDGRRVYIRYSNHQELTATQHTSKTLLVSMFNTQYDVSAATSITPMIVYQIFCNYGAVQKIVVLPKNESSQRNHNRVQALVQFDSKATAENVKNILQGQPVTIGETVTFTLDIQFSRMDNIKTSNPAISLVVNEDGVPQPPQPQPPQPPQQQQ

In data set [6] the target is T6, LmjF.18.0180 (Leishmania major) (UniProt Q4QE24).
T6 sequence: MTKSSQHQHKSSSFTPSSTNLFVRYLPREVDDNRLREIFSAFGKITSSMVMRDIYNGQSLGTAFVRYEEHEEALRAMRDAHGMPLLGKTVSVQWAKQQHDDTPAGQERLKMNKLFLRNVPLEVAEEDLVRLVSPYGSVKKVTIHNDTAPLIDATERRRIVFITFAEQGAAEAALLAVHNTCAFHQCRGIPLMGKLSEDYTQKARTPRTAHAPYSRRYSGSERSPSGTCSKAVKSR

The target of data set [7] is T7, RO3G_00049 (Rhizopus oryzae) (UniProt I1BGL5).
T7 sequence: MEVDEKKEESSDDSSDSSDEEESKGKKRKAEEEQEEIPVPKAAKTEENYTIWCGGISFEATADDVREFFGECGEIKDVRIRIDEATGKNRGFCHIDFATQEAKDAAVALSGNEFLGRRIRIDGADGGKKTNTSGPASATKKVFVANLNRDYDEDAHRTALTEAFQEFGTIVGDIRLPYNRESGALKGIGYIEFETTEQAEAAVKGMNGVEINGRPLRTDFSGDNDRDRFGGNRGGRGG

The target of data set [8] is T8, NCU08034 (Neurospora crassa) (UniProt Q7SAK7).
T8 sequence: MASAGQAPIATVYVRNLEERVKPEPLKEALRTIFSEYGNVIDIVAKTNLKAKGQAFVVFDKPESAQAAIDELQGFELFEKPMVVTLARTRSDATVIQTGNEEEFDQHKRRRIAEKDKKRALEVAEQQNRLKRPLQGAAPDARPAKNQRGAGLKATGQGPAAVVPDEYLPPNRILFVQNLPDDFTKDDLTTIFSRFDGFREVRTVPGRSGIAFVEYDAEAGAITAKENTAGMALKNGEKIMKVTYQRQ

Data set [9] has as its target T9, Thaps1841 (Thalassiosira pseudonana) (UniProt B8BS34).
T9 sequence: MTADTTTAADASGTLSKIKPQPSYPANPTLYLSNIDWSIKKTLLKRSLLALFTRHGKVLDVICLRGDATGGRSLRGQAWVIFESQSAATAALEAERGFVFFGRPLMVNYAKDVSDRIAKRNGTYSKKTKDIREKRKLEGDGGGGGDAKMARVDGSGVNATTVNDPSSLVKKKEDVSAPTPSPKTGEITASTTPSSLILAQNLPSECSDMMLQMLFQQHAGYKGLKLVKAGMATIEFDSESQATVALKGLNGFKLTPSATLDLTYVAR

The target of another data set is Pcbp3 (Mus musculus) (UniProt P57722).
Sequence of Pcbp3 (Mus musculus) (P57722 33-371): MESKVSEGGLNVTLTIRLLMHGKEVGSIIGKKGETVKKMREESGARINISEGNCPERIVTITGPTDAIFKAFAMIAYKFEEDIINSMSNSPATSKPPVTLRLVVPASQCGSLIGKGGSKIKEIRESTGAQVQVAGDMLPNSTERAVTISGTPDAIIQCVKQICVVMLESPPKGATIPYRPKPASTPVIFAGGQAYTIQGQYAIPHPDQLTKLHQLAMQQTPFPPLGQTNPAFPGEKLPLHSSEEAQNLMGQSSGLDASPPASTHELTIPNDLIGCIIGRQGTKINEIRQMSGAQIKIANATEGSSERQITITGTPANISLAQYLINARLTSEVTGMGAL
Data set [10] has as its target T10, PF13_0315 (Plasmodium falciparum) (UniProt Q8IDB7).
T10 sequence: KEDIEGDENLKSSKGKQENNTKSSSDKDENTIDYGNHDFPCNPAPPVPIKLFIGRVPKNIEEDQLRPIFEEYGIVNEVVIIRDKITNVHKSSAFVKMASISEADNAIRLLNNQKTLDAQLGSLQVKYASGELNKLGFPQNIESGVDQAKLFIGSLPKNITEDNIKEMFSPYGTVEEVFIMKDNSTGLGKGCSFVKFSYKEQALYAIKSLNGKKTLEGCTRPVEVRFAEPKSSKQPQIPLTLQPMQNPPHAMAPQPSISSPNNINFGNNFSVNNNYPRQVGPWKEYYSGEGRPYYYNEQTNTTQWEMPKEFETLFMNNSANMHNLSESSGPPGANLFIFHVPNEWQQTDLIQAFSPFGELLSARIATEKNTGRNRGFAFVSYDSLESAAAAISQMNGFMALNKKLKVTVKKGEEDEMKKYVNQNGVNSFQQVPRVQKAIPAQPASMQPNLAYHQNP

Data set [11] concerns the target T11, e_gw1.81.40.1 (Physcomitrella patens) (UniProt A0A2K1J988).
T11 sequence: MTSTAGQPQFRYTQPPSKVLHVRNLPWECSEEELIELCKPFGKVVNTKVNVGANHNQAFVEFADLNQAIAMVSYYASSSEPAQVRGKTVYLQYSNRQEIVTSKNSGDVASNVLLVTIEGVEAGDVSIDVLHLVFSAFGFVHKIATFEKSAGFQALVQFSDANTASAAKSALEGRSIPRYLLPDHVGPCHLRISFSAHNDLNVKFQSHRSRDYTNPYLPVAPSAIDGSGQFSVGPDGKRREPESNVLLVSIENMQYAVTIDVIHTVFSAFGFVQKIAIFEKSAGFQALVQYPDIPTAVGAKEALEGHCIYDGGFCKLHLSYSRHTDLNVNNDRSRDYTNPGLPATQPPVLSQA

Data set [12] concerns the target T12, LmjF.32.0750 (Leishmania major) (UniProt Q4Q5K7).
T12 sequence: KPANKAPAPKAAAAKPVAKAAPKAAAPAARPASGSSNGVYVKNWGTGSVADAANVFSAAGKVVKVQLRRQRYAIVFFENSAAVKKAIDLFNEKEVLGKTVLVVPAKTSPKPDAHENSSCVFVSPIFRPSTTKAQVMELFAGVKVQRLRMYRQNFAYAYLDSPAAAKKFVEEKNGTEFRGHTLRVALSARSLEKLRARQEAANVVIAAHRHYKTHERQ

For the next data set, the target named is T13, sf3b4 (Danio rerio) (UniProt A0ACM8Q308).
T13 sequence: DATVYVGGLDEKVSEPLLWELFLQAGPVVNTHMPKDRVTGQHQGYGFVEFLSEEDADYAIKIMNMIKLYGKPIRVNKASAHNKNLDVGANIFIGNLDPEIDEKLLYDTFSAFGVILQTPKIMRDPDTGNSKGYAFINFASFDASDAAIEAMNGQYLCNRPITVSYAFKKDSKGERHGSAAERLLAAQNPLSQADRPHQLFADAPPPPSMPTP

Data set [13] concerns the target T14, Tb927.7.5380 (Trypanosoma brucei) (UniProt Q582F3).
T14 sequence: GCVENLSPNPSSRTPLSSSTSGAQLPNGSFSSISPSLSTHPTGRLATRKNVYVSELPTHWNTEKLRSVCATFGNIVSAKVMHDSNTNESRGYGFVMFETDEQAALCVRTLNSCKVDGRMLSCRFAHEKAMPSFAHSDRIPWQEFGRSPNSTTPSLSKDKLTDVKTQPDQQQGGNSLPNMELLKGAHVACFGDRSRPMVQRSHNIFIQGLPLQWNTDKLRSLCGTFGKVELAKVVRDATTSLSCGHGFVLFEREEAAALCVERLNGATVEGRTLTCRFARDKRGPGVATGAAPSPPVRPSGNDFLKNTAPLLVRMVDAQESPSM

For data set [14], the target named is T15, PFI1695c (Plasmodium falciparum) (UniProt Q8I2G9).
T15 sequence: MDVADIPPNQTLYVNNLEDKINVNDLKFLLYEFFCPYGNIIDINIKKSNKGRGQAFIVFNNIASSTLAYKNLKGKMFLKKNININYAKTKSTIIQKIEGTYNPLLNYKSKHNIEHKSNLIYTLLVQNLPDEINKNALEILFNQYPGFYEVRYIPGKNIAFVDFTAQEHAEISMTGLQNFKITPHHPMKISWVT

The target of data set [15] is T16, Tb927.8.6650 (Trypanosoma brucei) (UniProt Q57TU8).
T16 sequence: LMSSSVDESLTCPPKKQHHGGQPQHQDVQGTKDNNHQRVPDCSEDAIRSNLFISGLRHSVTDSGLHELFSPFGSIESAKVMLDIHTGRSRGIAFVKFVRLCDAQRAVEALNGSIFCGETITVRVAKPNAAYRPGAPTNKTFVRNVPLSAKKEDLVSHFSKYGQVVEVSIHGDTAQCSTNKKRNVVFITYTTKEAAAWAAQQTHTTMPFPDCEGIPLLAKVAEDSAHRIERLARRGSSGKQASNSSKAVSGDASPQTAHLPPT

The target in data set [16] is T17, MAL8P1.40 (Plasmodium falciparum) (UniProt Q8IB66).
T17 sequence: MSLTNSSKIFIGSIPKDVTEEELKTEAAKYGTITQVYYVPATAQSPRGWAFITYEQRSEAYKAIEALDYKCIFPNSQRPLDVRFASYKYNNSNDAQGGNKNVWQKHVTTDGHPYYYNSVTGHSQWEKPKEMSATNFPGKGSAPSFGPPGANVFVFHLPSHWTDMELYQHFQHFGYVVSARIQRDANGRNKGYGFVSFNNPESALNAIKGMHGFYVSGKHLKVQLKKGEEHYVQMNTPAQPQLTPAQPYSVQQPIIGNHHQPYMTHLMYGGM

CAUUGU [RNAcompete motif RNCMPT00216]: the binding signal (z-score (mean of top ten 7-mers)) in data set [1] is 18.7.
With GGAGGA [RNAcompete motif RNCMPT00199], the binding signal (z-score (mean of top ten 7-mers)) in data set [2] is 8.55.
For CAAUAA [RNAcompete motif RNCMPT00226], the binding signal (z-score (mean of top ten 7-mers)) in [3] is 12.9.
Take UUUUUU [RNAcompete motif RNCMPT00202]: the binding signal (z-score (mean of top ten 7-mers)) in data set [4] was 6.28.
Take CUUUCU [RNAcompete motif RNCMPT00220]: in data set [5], the binding signal (z-score (mean of top ten 7-mers)) is 6.05.
For the sequence CAUUUU [RNAcompete motif RNCMPT00212], the binding signal (z-score (mean of top ten 7-mers)) in data set [6] is 30.2.
For AGGGGAA [RNAcompete motif RNCMPT00205], the binding signal (z-score (mean of top ten 7-mers)) in data set [7] was 9.5.
On to AGCACA [RNAcompete motif RNCMPT00209], for which, in data set [8], the binding signal (z-score (mean of top ten 7-mers)) is 11.1.
As for ACACGC [RNAcompete motif RNCMPT00225], the binding signal (z-score (mean of top ten 7-mers)) in data set [9] was 6.33.
Regarding CUUUCC [RNAcompete motif RNCMPT00215], the binding signal (z-score (mean of top ten 7-mers)) with Pcbp3 (Mus musculus) is 6.23.
With UUACAU [RNAcompete motif RNCMPT00200], the binding signal (z-score (mean of top ten 7-mers)) in data set [10] is 7.45.
Take AACCUUU [RNAcompete motif RNCMPT00206]: the binding signal (z-score (mean of top ten 7-mers)) in data set [11] was 6.39.
Consider UACACG [RNAcompete motif RNCMPT00223], for which the binding signal (z-score (mean of top ten 7-mers)) in data set [12] was 10.4.
Take CAAAAG [RNAcompete motif RNCMPT00224]: in the data set with sf3b4 (Danio rerio), the binding signal (z-score (mean of top ten 7-mers)) was 28.4.
UUAUU [RNAcompete motif RNCMPT00218]: the binding signal (z-score (mean of top ten 7-mers)) in [13] was 7.15.
For the sequence CCUGCAC [RNAcompete motif RNCMPT00203], the binding signal (z-score (mean of top ten 7-mers)) in data set [14] is 9.07.
For UAUACU [RNAcompete motif RNCMPT00219], the binding signal (z-score (mean of top ten 7-mers)) in data set [15] is 15.8.
As for AUACAUG [RNAcompete motif RNCMPT00197], the binding signal (z-score (mean of top ten 7-mers)) in data set [16] is 14.8.
